Where two headings read alike, the source gives them in different places.
Legend:
[1] = target: BCMA (TNFRSF17) on NCI-H929 cells (UniProt Q02223); assay: cell-based or functional assay
[2] = target: BCMA (TNFRSF17) on NCI-H929 cells (UniProt Q02223); assay: cell-based or functional assay; remark: listed apart in the source

BCMA (TNFRSF17) on NCI-H929 cells, sequence (Q02223 whole entry): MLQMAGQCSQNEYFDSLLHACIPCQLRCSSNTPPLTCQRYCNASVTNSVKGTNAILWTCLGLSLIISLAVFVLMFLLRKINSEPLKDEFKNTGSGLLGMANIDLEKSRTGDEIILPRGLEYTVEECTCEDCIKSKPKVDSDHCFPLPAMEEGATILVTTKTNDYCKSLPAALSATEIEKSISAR

Question: What does the source list for “J6M0 anti-BCMA human Alya IgG1 conjugated to McMMAF (antibody)”?
Answer: Average NCI-H929 IC50 [pM], cell kill [1]: 74.5 pM; EC50 (nM), Fab-pHast internalisation into NCI-H929 [1]: 11 nM; Fold-Change at 6 hours (10 nM), Fab-pHast internalisation [1]: 37 fold; Average NCI-H929 IC50 [pM], cell kill [2]: 110 pM

Reference: US20250152729A1
